Test results: the supplement of paper PMC9732359
± gives the uncertainty stated by the source.

Assay: protein stability index of a GFP-peptide fusion (yeast GPS) (PSI 1-4); higher = more stable; sorted into four equal gates, so the index is relative within each strain
Procedure, shortened: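 Sequencing reads from sorted gates were used to score each peptide. The library consisted of tiled 17-residue yeast protein peptides fused downstream of GFP on a Cherry-expressing plasmid, pooled and carried in yeast. Mid-log cultures in leucine-free medium were split into four equal gates by GFP/Cherry ratio, and each gate's plasmids were PCR-amplified and Illumina-sequenced. The protein stability index adds up, over all gates, the read frequency multiplied by the gate number.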

IQEQRVKDKQSKVSDDS [RPN8]
protein stability index (doa10∆): 1.97 ± 0.11
protein stability index (pdr5∆): 2.79 ± 0.13
protein stability index (ubr1∆): 2.92 ± 0.13

IQGISKMYSDDTLKDIS [BRN1]
protein stability index (doa10∆): 3.24 ± 0.17
protein stability index (pdr5∆): 3.35 ± 0.15
protein stability index (san1∆): 3.37 ± 0.15
protein stability index (ubr1∆): 3.05 ± 0.17

IQIDEETENSESIASSN [MCD1]
protein stability index (doa10∆): 2.4 ± 0.071
protein stability index (pdr5∆): 2.73 ± 0.072
protein stability index (san1∆): 2.5 ± 0.082
protein stability index (ubr1∆): 2.76 ± 0.051

IQPKITELKKKLDDLEN [SMC1]
protein stability index (doa10∆): 3.11 ± 0.13
protein stability index (pdr5∆): 2.79 ± 0.13
protein stability index (san1∆): 3.11 ± 0.14
protein stability index (ubr1∆): 2.71 ± 0.14

IQSKRLRNKIAGYTTHL [RPS17A]
protein stability index (doa10∆): 3.16 ± 0.1
protein stability index (pdr5∆): 3.41 ± 0.088
protein stability index (san1∆): 3.23 ± 0.065
protein stability index (ubr1∆): 3.36 ± 0.072

IRAIRKVISEILTKEVQ [RPS1A]
protein stability index (doa10∆): 1.714 ± 0.013
protein stability index (pdr5∆): 1.89 ± 0.012
protein stability index (san1∆): 1.83 ± 0.021
protein stability index (ubr1∆): 1.966 ± 0.011

IREIDVAGGKKALAIFV [RPS7A]
protein stability index (doa10∆): 2.29 ± 0.089
protein stability index (pdr5∆): 1.75 ± 0.11
protein stability index (san1∆): 1.49 ± 0.17
protein stability index (ubr1∆): 1.77 ± 0.066

IRGSDQAIPKFQMNCYA [RPN2]
protein stability index (doa10∆): 1.27 ± 0.085
protein stability index (pdr5∆): 1.62 ± 0.066
protein stability index (san1∆): 1.55 ± 0.13
protein stability index (ubr1∆): 1.47 ± 0.11

IRNINVQDALLTNQLYK [SNF2]
protein stability index (doa10∆): 2.84 ± 0.07
protein stability index (pdr5∆): 2.67 ± 0.064
protein stability index (san1∆): 3.12 ± 0.05
protein stability index (ubr1∆): 3.24 ± 0.075

IRNLTVFTMKELAQYMK [RGR1]
protein stability index (doa10∆): 3.04 ± 0.24
protein stability index (pdr5∆): 2.78 ± 0.22
protein stability index (san1∆): 2.71 ± 0.2
protein stability index (ubr1∆): 2.79 ± 0.08

IRNVLVTVDQYVNVAIS [SSN2]
protein stability index (doa10∆): 1.21 ± 0.044
protein stability index (pdr5∆): 1.25 ± 0.058
protein stability index (san1∆): 1.29 ± 0.089
protein stability index (ubr1∆): 1.39 ± 0.058

IRSSSVSLVAEATSNTN [MED4]
protein stability index (doa10∆): 1.89 ± 0.076
protein stability index (pdr5∆): 1.63 ± 0.061
protein stability index (san1∆): 2.12 ± 0.098
protein stability index (ubr1∆): 1.33 ± 0.036

IRVAETRGGASALIENN [YJL039C/NUP192]
protein stability index (doa10∆): 2.39 ± 0.071
protein stability index (pdr5∆): 2.46 ± 0.089
protein stability index (san1∆): 3.1 ± 0.072
protein stability index (ubr1∆): 2.89 ± 0.055

ISDIPYVISLSYTDAQD [YMR129W/POM152]
protein stability index (doa10∆): 2.16 ± 0.066
protein stability index (pdr5∆): 2.41 ± 0.068
protein stability index (san1∆): 2.5 ± 0.061
protein stability index (ubr1∆): 2.64 ± 0.06

ISFAAFILADAGLEITS [RPP1B]
protein stability index (doa10∆): 1.98 ± 0.063
protein stability index (pdr5∆): 1.8 ± 0.055
protein stability index (san1∆): 2.03 ± 0.23
protein stability index (ubr1∆): 1.9 ± 0.076

ISLHENKLSGILADEMG [ISW2]
protein stability index (doa10∆): 2.81 ± 0.085
protein stability index (pdr5∆): 2.16 ± 0.069
protein stability index (san1∆): 2.71 ± 0.084
protein stability index (ubr1∆): 2.44 ± 0.1

ISLRNNHKIIARVKAFD [SMD2]
protein stability index (doa10∆): 1.79 ± 0.044
protein stability index (pdr5∆): 2.02 ± 0.038
protein stability index (san1∆): 2.49 ± 0.051
protein stability index (ubr1∆): 2 ± 0.041

ISNINIPISSETTIDDL [SMC1]
protein stability index (pdr5∆): 2.69 ± 0.17
protein stability index (ubr1∆): 1.85 ± 0.071

ISNNLALVFAALEHLKN [SRP68]
protein stability index (doa10∆): 1.95 ± 0.051
protein stability index (pdr5∆): 1.8 ± 0.041
protein stability index (san1∆): 2.12 ± 0.052
protein stability index (ubr1∆): 2.09 ± 0.041

ISPLMKSQYNMVLRNVM [SRB8]
protein stability index (doa10∆): 2.32 ± 0.068
protein stability index (pdr5∆): 2.12 ± 0.12
protein stability index (san1∆): 2.79 ± 0.1
protein stability index (ubr1∆): 2.84 ± 0.11

ISSLIGGFEYFLQPLLL [NUT1]
protein stability index (doa10∆): 1.21 ± 0.058
protein stability index (pdr5∆): 1.27 ± 0.08
protein stability index (san1∆): 1.33 ± 0.16
protein stability index (ubr1∆): 1.38 ± 0.19

ITGNKIMRILKSNGLAP [RPS13]
protein stability index (doa10∆): 3.01 ± 0.14
protein stability index (pdr5∆): 3.32 ± 0.18
protein stability index (san1∆): 2.53 ± 0.16
protein stability index (ubr1∆): 2.91 ± 0.057

ITHQGANSESGHYQAFI [UBP6]
protein stability index (doa10∆): 3.04 ± 0.19
protein stability index (pdr5∆): 2.95 ± 0.08
protein stability index (san1∆): 3.16 ± 0.071
protein stability index (ubr1∆): 3.05 ± 0.079

ITHYAVRGGNIEIMGIL [RRI1]
protein stability index (doa10∆): 2.85 ± 0.1
protein stability index (pdr5∆): 2.54 ± 0.097
protein stability index (san1∆): 2.79 ± 0.095
protein stability index (ubr1∆): 2.25 ± 0.13

ITIDSVVDANGCVNSLI [YMR129W/POM152]
protein stability index (doa10∆): 3.01 ± 0.11
protein stability index (pdr5∆): 2.91 ± 0.09
protein stability index (san1∆): 3.05 ± 0.055
protein stability index (ubr1∆): 2.8 ± 0.06

ITLHPSFFGPRMKQYLK [RPB7]
protein stability index (doa10∆): 2.41 ± 0.12
protein stability index (pdr5∆): 2.47 ± 0.12
protein stability index (san1∆): 1.75 ± 0.21
protein stability index (ubr1∆): 2.02 ± 0.061

ITSNHKSSVPGSAELRN [RPN3]
protein stability index (doa10∆): 2.69 ± 0.087
protein stability index (pdr5∆): 3.25 ± 0.074
protein stability index (san1∆): 2.67 ± 0.069
protein stability index (ubr1∆): 2.63 ± 0.08
